Experimental data taken from publication PMC5123071 (2016).

Biological target: biotinylated Apaf-1 CARD-LZ-Avi (UniProt O14727 1-137, biotin on the AviTag (BirA))
Assay: SPR

Sequence of biotinylated Apaf-1 CARD-LZ-Avi (O14727 other isoform, or with tags, fused parts or gaps): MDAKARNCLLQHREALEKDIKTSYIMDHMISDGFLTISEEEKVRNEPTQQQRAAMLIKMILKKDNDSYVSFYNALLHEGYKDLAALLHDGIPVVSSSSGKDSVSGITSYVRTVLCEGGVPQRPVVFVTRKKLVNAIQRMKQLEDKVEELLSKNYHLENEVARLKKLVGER

B1: processed C9/8 chimera (enzyme)
chain 1: MDEADRRLLRRCRLRLVEELQVDQLWDALLSRELFRPHMIEDIQRAGSGSRRDQARQLIIDLETRGSQALPLFISCLEDTGQDMLASFLRTNRQAAKLSKPTLENLTPVVLRPEIRKPEVLRPETPRPVDIGSGGFGSESQTLDKVYQMKSKPRGYCLIINNHNFAKAREKVPKLHSIRDRNGTHLDAGALTTTFEELHFEIKPHDDCTVEQIYEILKIYQLMDHSNMDCFICCILSHGDKGIIYGTDGQEAPIYELTSQFTGLKCPSLAGKPKVFFIQACQGDNYQKGIPVETD
chain 2: LSSPQTRYIPDEADFLLGMATVNNCVSYRNPAEGTWYIQSLCQSLRERCPRGDDILTILTEVNYEVSNKDDKKNMGKQMPQPTFTLRKKLVFPSD
Kd: 125 nM
